These results are taken from the DeepSol protein solubility set.

This data set is described as follows: soluble on expression in E. coli; label from the status in PepcDB or PDB records.
With “MIQVLGTSSGSGKTTIAMALSRIFFRSGYRVAPFKAVNMSLNSVIVEGEYEIARAQWLQAKAANTEPTRFMNPILLKPEGMGASQVIMLGKSLGKKTIPEYYEFIMNDGKRVIREAIDRISDDYDLIIAEGAGSPAEINLLDRDMANIYVSSIYNTPAILVGDIDRGGVFASIYGTLSLMPRPDLVRWIMINKMRGDASLLEPGLKKLENLTGKRVIGVVPYSENRLPGEDSFDYDHPRARGSKITIVRYPFMENYSDLDPLVYTSTGYNYVTAENASDLSDADLIVLPGSKNVFADLEYMRKNGIDKIIIENAGRAKILGICGGYQMLGQRITMGEISADGLGLLRAKTNYERTKTTRSVRYRVDNTLMSGTWEEGYEIHYGAVISLGGERMNETDKGPEGNVDANRLVFGTNIHGILANRSVFRFMTGRDIGEPEEYLRSEIDRFADVVKSSIDVADLIEYASSRE”, the “soluble on expression in E. coli” value was “not soluble”. Turning to “MGSDKIHHHHHHMGEAIVITSGKGGVGKTTTSANLGTALAILGKRVCLVDTDIGLRNLDVVMGLENRIIYDLVDVVEGRCKMHQALVKDKRFDDLLYLMPAAQTSDKTAVAPEQIKNMVQELKQEFDYVIIDCPAGIEQGYKNAVSGADKAIVVTTPEISAVRDADRIIGLLEQEENIEPPRLVVNRIRNHLMKNGDTMDIDEIVQHLSIDLLGIVADDDEVIKASNHGEPIAMDPKNRASIAYRNIARRILGESVPLQVLEEQNKGMMAKIKSFFGVRS”, the “soluble on expression in E. coli” value is on record as “not soluble”.

For “MLMRQVLEEACLKSGFEVNSHRLQTQSRKPIDSSLPFRLTGLANNATLEMTQKEAVSENTIIELAIQTASGARHQKKVGVNQMLLDALKSFTSEFKEDLATTIDGSVPCIVYMNKRYTGAELAVNSLSSLGVASGKCLIRHMRVKLSDQELATMQAKLQEENERKKALDVNFVKLKAENAERDRLERLRQEAFDKDKESREKREQEQLRALIPEPASNIQDSTVMDTTESQQRDVLQEVPEQNPNSWSFDGPAFSRQVPQNTMRMEELNRLLERVDHSLATPAVESRMDAMVNALADGGRISLAEVRTRADVAMEQEQEEDPVEVFANPCDRQAVIYKKRARVQTTDEPMETEEFFEVGIEDVRNMQKDLRKAVRDQTQASFISKEYLAKKNRQLKLEAYKHTVIRISIGEHILQVYFNTAEQSSNLDLFLNNVLTRSGWKLMFTNLKVVTNELKNFVDIELAPKSTLIASFGGQTVNAADVVHNVIEVTPEKADAMSADWLSLNKTFMPFNSTVNDDRKQKRPQFQSSSSSSHSGPPAKSAMPKWLQTGKK”, the “soluble on expression in E. coli” value is “not soluble”. The value for “MVCGKKRVGEELRCKSCGSPFEIRTGFHYRENIEDNFPYIKNMISLGESETPIFHGDDFDLKLDYMLPTFSYKDRGSRILISHIADIRDSYGITRISEDSSGNAGASIAAYGSAAGLAVDIYVPETVAGRKFSQIQAYGANVIKVKGSREDVQSAAERSESFYASHVLRPEFRDGIRTLAYEIYRQYDRMPRNIYIPVSAGTLLLGLYSGLRHLMESGEIAEMPAIVAVQTEAVSPLCAKINGLNYDPDNKLSSIADALVSRKPVLLQKMYQVISEYGRCMTVSDDEIIEARNRLAKKGFLVEYSSATVYAAFRKKPQENSLLVLTGSGLKNDS” was “not soluble”; that for “MDTALYLLPVTLGDTPIESVLPSYNKEIIQGIKHFIVEDVRSARRFLKKVDREIDIDSLTFYPLNKHTSPEDISGYLKPLAGGLSMGVISEAGCPAVADPGADVVAIAQRKNLKVVPLVGPSSIILSVMGSGFSGQSFAFHGYLPIEPGERAKKIKALEQRVYAEHQTQLFIETPYRNNKMVEDILHNCRPQTRLCIAANITCEGEYIRTKTIKEWQGKVPDLTKIPCIFLLYQLEHHHHHH” was “not soluble”.

On to “MSLASKPSLLFVDDSKVMRLAADKMLGREFRVEVAENGLQAWTMVCHNPSISVVFSDLAMPEMDGFALLKKIRTSEDEGVAGLPVIIVTGAENDDEARAEALRLGGTDFISKPFNSTDLLARARAHANYQNERKEFAKQAMIDPLTRLGNRRYLLHRLRQELALAARQQYRLSVVQLEICQFNQLFVQLGKKRTDMVLLKLAQSLRGVIRKEDSLARSSVAQFTVLLPSAGPNGAKRFVERALKVSERLAFQFRGKVQRLPLTVIIHTPAVHAGLAPRQVQLALEEQLKQARKLGPGTVLSDDADTTLSVDESAPILTIEQALVLLRAGKPRAVVSALPDLERQLAPLLELMKRSASDQEGHHHHHH”, for which the “soluble on expression in E. coli” value is “not soluble”. The value for “NATERSPVIIGLAGFTGSGRSFLNRTYTSMDFLTALKEIDEKRSDLGFIIVLPDVMTGLYGNQYLNSSAVGNYEDFIVKDIVGIIRERFGERPMGVFGKSSGGFGSYTLAVRHPDIFSGFIDVSGDSAFEYVYIPDFPDTYKEIRRQGLYRWFDEIHRKLSLQNQDIKVANIVAMSAFYSPDPGSPMGISLPFDIETGELIESVWNRWLKFDPARNIADYMDVLRDMAIFLQVGAKDEFHTDIGIGTMHRKLEQENVVHFYEVYDSGHFGIDYFYLKSLPLLIELIEQ” was “not soluble”; that for “GPGSMRSTAPLFMAQGIWAGFRYYLGHFFYPNMYREYLSVQNAHKIERALRIQTAIKANRVDYRALLALPVTDHAHPYKMEYPWEKVINTDKSKLSGYGKWYASKIMCFYEGLQYHKYGCLQDDLINAHGWWNRAARTRAPQDKIVHGDRRVMRARVLRDKYIYEPKSRWVHPIDNVAYFGPYVMMVCDEWEEKWGFFAGQEVEY” was “not soluble”; that for “MSLMSSDQQGKCPVDEETKKLWLREHGNEAHPGATAPGNQLECSANPQDNDKTPEYHTTVDLSQSREVSTIPRTNSDRNWIYPSEKQFYEAMMKKNWDPNSDDMKVVVPLHNSINERVWNYIKSWEDKQGGEACGGIKLTNFKGDSKKLTPRAWFRSRILHLAKPFDRHDWQIDRCGKTVDYVIDFYSTDLNDANSQQQPLIYLDVRPKLNSFEGFRLRFWKSLGFEGHHHHHH” was “soluble”. In the case of “MAHHHHHHMVENELLYENDVSNSGLDGKPRLHSFFNKDGLLLRTYSWTVKKAIGIFLLIHGLNGHVRLQYLRQNVEVISNDKAILKDQDNYYVYKDSWIEKLNDKGYSVYGIDLQGHGLSEGWENLKANINNFDDLVYDVIQYLEEINRTVCLDYERNKYLRAIREKNTDMKALKKDKIPIYIMGLSMGGNVVLRTLELLGKSGDYKNLNIKGCISLSGMICLEELSSKASMKYKYFLVPFSKFISYIFPKCRINQNFNFEMFPFVNDIINFDKHRSKKWITFKFGHQILRSITNLRKDIQYIPKDIPILFVHSIHDCACYYGGVVTFYDQLDNDKKELYTIYDMDHLLTMEPGNEKVLEKVLDWISGSFNNKRRRRRTSS”, the “soluble on expression in E. coli” value is recorded as “not soluble”. Take “MSRRHSVVDAYSTVEGKIRDTMRELSALWDEVDMSEAMRLKRVDNAFTHITLLCDDMLSGEKEMIHNLKVSIREDMQNVKKMRLELEMEDFQRPAEIKDGSIALMRHLQSEVKSLETEFQTRHEDQRVLIEKICNLKKRLESDFEFEYEIHAKLNFDTDLPPCMSPATSEMISFITPTRRQAVGPKTSSPKDTQPSTSSSSRTTTPMSKRAMTPSSIASSTPSSAKKVLTRRNQFL”: the “soluble on expression in E. coli” value is “not soluble”. With “VERAQDGLYTIDERGVIDFCNDSFAATLGYEPGKLCGTHILEVLAPGEFPKGQAAVEELLEAPDQESTTVDLTFRRKDGAERELSFNHTLTHDEAGNYNGVIGVARDVT”, the “soluble on expression in E. coli” value is reported as “not soluble”.

Consider “MSLTASQQPTASQDPTRIDALVIGAGFGGMYAVHKLSGMGLSVQGFEAGGDVGGVWYWNRYPGARCDLMSLDYCYSFSPDIEQEWTWSEQFAAQSEILAYANFVADRLDLRRHFLFETWVTGAAYDEAANVWRVTVDDGRVFEATYCVMASGPLSIPKGVPFDGADDFKGEILLAAKWPHTPVSFEGKRVGLVGTGSTGIQIVPEVAKTAGALTVFQRTPSFTLPMRNVTLEPDYVAELKRNYAGIRQVARNSPLGGVRPQSTRPFFSVTPEQRRALMEDSWARGGLSFLGTFSDLLVNPEANEQVAEFVRSKISEVVTDPVTAEKLKPRGYPIFARRPCLDTHYYETFNLPHVKLHDCLESPIVKITPAGLLTETGEVELDVLIFATGYDGLTGALLNFDVVGRGGLQLRDKWRDGAKSHLGLMIASFPNLFLVCGPNGPAALANIITLDQQNIDWIADAITHMRQEGLATIEPTEGAEQGWMDMVYGMAELTLVSKANTWYVGGNISGKPRGLSMYTGGFQRYSEACRLAAEKGYEDFVFEKAATKQGARSEGHHHHHH”, for which the “soluble on expression in E. coli” value is listed as “soluble”.

As for “MGSDKIHHHHHHVRLWIPHVTRPTVQPASSYATYSVMPGATVKELADLIGVSTTAVRDHLVHLQAEGMVEVTSERSGPGRPRLVYSLSEKAQKSFPKQYDRLISTLLRELIELEGEGKVEQLLDRVSQRLASEYADRMAGSDVAARLNELRALLEQRGVPAEIDPEGDVLRLFACPYYDVAADYPEVCSMERRMIEYVLGEKLVLEDTIRAGAHNCRFVLRPQDIPLTMTPPAADPTTEV”, the “soluble on expression in E. coli” value is “not soluble”. “MNSVGEACTDMKREYDQCFNRWFAEKFLKGDSSGDPCTDLFKRYQQCVQKAIKEKEIPIEGLEFMGHGKEKPENSSLEHHHHHH”: the “soluble on expression in E. coli” value is “not soluble”. Consider “MIKQRTLKQSIKVTGVGLHSGEKVTLTLRPAMPNTGVVYYRTDLNPAVAFPADPNSVRDTMLCTALINEQGVRISTVEHLNAALAGLGIDNIIIEVDAPEIPIMDGSASPFIYLLLDAGIEEQNAAKKFIRIKQYVRVEDGDKWAEFKPYNGFRLDFTIDFDHPAIGKDVRNYEMNFSAQAFVHQISRARTFGFMKDIEYLQSQGLVLGGSLDNAIVLDDYRILNEDGLRFKDELVRHKMLDAIGDLYMAGYNIIGDFKAYKSGHGLNNKLLRAVLANQEAWEFVTFEDKAQVPQGYVAPVQVLILEHHHHHH”, for which the “soluble on expression in E. coli” value is listed as “soluble”. Take “MISYQKAKLAKNLAISTASKWLFVHSSTGGSATNLSIAQYATLINGIQSAIKCQVILTAGKGERERAVELAEKLTDQNVVIYDKNDGLADFTRSLACADLFIAGSTGPLHIAGGLNIPTVGFYPSRLSATPRRWRPINQVDKHLAFCPPSGKQCEMDLTLISIEQALTSVIPFIKKMWQLSLEHHHHHH”: the “soluble on expression in E. coli” value is listed as “not soluble”.

On to “GAKESEQKVTIDSAKHEKHTKDKEENNSANTVFFDKINDLLVASVKEFEGTVGISYLDLETGEQRSVNGQHEFYTASTIKVPLTMLVADTVASGQKKWTDLIPYNAEEDYEEGTGIIAYNIQPEYPLKTLQEYAITYSDNIAKNMLYDTLGGDAKAKREMYQRYLHKTPSIEEPQFSSEDALVILQKLYTEKATKPDYQAIYDSMKQSVFHERMETPTTQGKVAHKIGSYDEFIHDMGILETPHPFALAIFTKGPDNAKSAAFIASVTDKLWQLQVSEYPNQ”, for which the “soluble on expression in E. coli” value is “soluble”. On to “MSLTEEFVNKEDALKNYNAKEFRTPDGYTSDMILTTVKELNGKPTLHILLIKRSLTNAEGKPNMEGGKWAVPGGFVDENESAEQAAERELEEETSLTDIPLIPFGVFDKPGRDPRGWIISRAFYAIVPPEALEKRAAGDDAAEIGLFPMTEALELPLAFDHLDMLKKAFSAITEEFLLTTAIRDFLPETFSAELLYQTLEGCTKPGILPDEVEFMENIEYLPYLEKVGDLYRFNADAEAGSIYFEGHHHHHH”, for which the “soluble on expression in E. coli” value is listed as “soluble”.
